From publication PMC9025429

Target: N36 peptide (HIV-1)
Assay: ELISA; competition ELISA of 6-HB formation: plate coated with the 6-HB-specific mAb NC-1; inhibitor at 0.312-20 uM with N36 (final 1 uM) and biotin-C34 (final 2 uM) in PBS, 37 °C, 1 h; streptavidin-HRP detection

Chain of N36 peptide (HIV-1) (P03375 546-581 limits assumed): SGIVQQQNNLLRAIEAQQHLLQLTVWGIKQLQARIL

Substance: C10-T1144 (peptide)
- IC50: 2420 nM
